This data set can be described thus: label from the status in PepcDB records.
Take “MKRLSLLAATAAFLLASPALAESPFWPVQPKNGPVAAELRGAWKSRGYGWIVQFGPDGPQLFHTAGGACYPDPRREPDPDGVLALWRAEGPGVISLTGDPVGTRYQFDRLPNLPTDCISAGGWTPDRIVAFAADTFAELYPRSAERKLDWPARKAKALTQVGPNATDDQLWLAMAGLLSGLDDPHVELHGMVQGARRDLEPGESPTLMRVRAADPSGDERGWLQAYREGILTGLLQGKGRQAANNRIFWGRVDDVGYLNVLTMGAFARNAAPDDPRPLDAVLDEALSAFVGAKAVVVDVSNNRGGYDIISRRIAARFTAQPRVAYAKVPVGAKAPPQVIKVEPSGAVGFTGPVYVVTSDITVSAGETFTLMMKALPNVTLVGGTTRGAFSDQLPKPLPNGWTLALPAELYRTADGRDLEGRGLAPTVPMAVFPDSDLMGGHAKALSSLFATIREGAAAGATR”: the protein production result is recorded as “failed”.

As for “MSSLNLSPAAVSELVFSQTGLALISLLLTLFCYFAAKILYQRHRVWWLAPIVLAPVVITLLVFNLDIPLPTYFEYTHWLMAMLAPATIAFALPIYRERKLIRQYPLTIAFGVIAGLLLGMVSSWLLVKFVPLPVELSKSLLVRSVSTPFAMEATGAFGGVPELTAMMVLITGIIGMLVCEPLFKLMHIRTSLGKGVALGASAHGAGAAKASELGQQEGVIASLTMIFIGIAMVLGAPFFALIFS”, the protein production entry is on record as “failed”.

Regarding “MSNGIVIIGSGFAARQLVKNIRKQDATIPLTLIAADSMDEYNKPDLSHVISQGQRADDLTRQTAGEFAEQFNLHLFPQTWVTDIDAEARVVKSQNNQWQYDKLVLATGASAFVPPVPGRELMLTLNSQQEYRACETQLRDARRVLIVGGGLIGSELAMDFCRAGKAVTLIDNAASILASLMPPEVSSRLQHRLTEMGVHLLLKSQLQGLEKTDSGIQATLDRQRNIEVDAVIAATGLRPETALARRAGLTINRGVCVDSYLQTSNTDIYALGDCAEINGQVLPFLQPIQLSAMVLAKNLLGNNTPLKLPAMLVKIKTPELPLHLAGETQRQDLRWQINTERQGMVARGVDDADQLRAFVVSEDRMKEAFGLLKTLPM”, the protein production entry is listed as “failed”.

Regarding “NPQIREEVALDTQTGANPSAEELADGDIQAVAQAANERTGALFVVITDGLGIRLSHPDEERLGEQVSTSFEAAMRGEETMAWETGTLGASARAKVPIFAPDSSVPVGEVSVGFERDSVYSRLPMFLAA”, the protein production entry is listed as “failed”.

With “MTEHRPAIELEEIPTLLERIEGYKGRSRLTQLAIKLNLLIFIRSSELRFARWSEIDFKSGLWVIPEQREAIKGIKHSDRGAKMRRKHYVPLCEQALVILGELKDLTYDVNGDDGFILTGCYDAMKPMSENTINKALRKMGYDTKTDLCGHGFRTLACSALIESGIWPEDVVELQMSHMEKNNVRAAYTHKAKHLEQRRLMLQWWADFLDANGSGMVRPFEFAQGATQYLEHHHHHH”, the protein production result was “failed”.

In the case of “MSITYSAISFSGFSPKSVPFAIHSVTRRQFLNPNTFYRFGFSPSLQGSSIEFSLQLNSRVVLSKERRSLPLVVRNDRPQNEDLPKQYTRREKKPFPVPIVDLRRAARERVKNNKDKPKRPLPPPKNGMVVKSLVPLAYKVYNARIRLINNLHRLMKVVRVNACGWCNEIHVGPYGHPFKSCKGPNTSQRKGLHEWTNSVIEDVIVPLEAYHLFDRLGKRIRHDERFSIPRVPAVVELCIQGGVEIPEFPAKRRRKPIIRIGKSEFVDADETELPDPEPQPPPVPLLTELPVSEITPPSSEEETVSLAEETLQAWEEMRAGAKKLMRMYRVRVCGYCPEVHVGPTGHKAQNCGAFKHQQRNGQHGWQSAVLDDLIPPRYVWHVPDVNGPPMQRELRSFYGQAPAVVEICAQAGAVVPEHYRATMRLEVGIPSSVKEAEMVV”, the protein production entry is “failed”.

Regarding “MIRAVFFDFVGTLLSVEGEAKTHLKIMEEVLGDYPLNPKTLLDEYEKLTREAFSNYAGKPYRPIRDIEEEVMRKLAEKYGFKYPENFWEIHLRMHQRYGELYPEVVEVLKSLKGKYHVGMITDSDTEYLMAHLDALGIKDLFDSITTSEEAGFFKPHPRIFELALKKAGVKGEEAVYVGDNPVKDCGGSKNLGMTSILLDRKGEKREFWDKCDFIVSDLREVIKIVDELNGQ”, the protein production entry was “not failed”.

On to “MPRSQADSALAEAERHLAAGRSQQAREAFRRARLFFHRCADTDGEAIVLVRLGEAELAAGHLASAKEALSDALALLSHETDPSARADALHLMGSLKNAEKNAPERDRLWAEAVSAHRDHGNKAGEARVLRDQAQVAKATGKDDLAFDLFSRAHRLYADLGHSFHEAMILLEIGQLHRAQGRADLAHDALERAADLFRVNGDTLDEGRTRLTLARLLRDLGDKETALRDLTLCAKLFGANGHLGGQAEALIDLARLEAAKAPKAALKMLHQARALAARSGIPSLQTQAASEIARLDQAALKDTP”, for which the protein production result was “failed”.

In the case of “MEEFAVVIIGAGPAGGQCARQLAQQGVRVLLVEQHSNFSQNNYSSAASPLETMALFDLPPGVVARYWRNLAIAATEKEQIWYSDQPRGVVFDFAKLRQFLADTVTKAGGQVWLGHRFWGYQQVGDGLEVTLRRSSKNSLSSDSVEKVEKVTVKTQVLIDATGSKRAVINCGQPKATDNNQYYRGIGTEYLITVDETTHQRFADTLVFFLGYRWSPQGYSWIFPMDNHQLKVGTAIFAGQHRYLGELKPLRSYTEAIIRDYLKLEKSQYHLEEIHGSVLDYAVNQGDTYHRGSVLAIGDAVSTVNFLGGEGIRHGMQGANIAVPFVADYLRGHVQAFEKYEQAMKAHFAEPWQRTEKLSQRVYLEFGDRQIDLGVTYLSYLRYDDVLDLLFHYRFDRIYGGITPLLLKKVAQFSQQCRQWLRKLSPLEHHHHHH”, the protein production result is on record as “failed”.

Turning to “PTRQVLQGSRCRLEPLTLAHASDLFAAHQLAPDARSWTWLLREPESNLAEFSAWVEQVATLADPIHFAVVDQQRGKAVGSLALMRIDIAHGVVEVGHVHFSPLLSRTAMATEAHWLLMQYVFDTLGYRRYEWKCNSLNIPSARAARRLGFQYEGRFRQALVSKGHNRDTDWFSVIDGEWPELD”, the protein production result is recorded as “failed”.

Turning to “IEDCWLAYATAGTLNEDKSNAILIPTWYSGTHQTWFQQYIGTDHALDPSKYFIISINQIGNGLSVSPANTADDSISMSKFPNVRIGDDVVAQDRLLRQEFGITELFAVVGGSMGAQQTYEWIVRFPDQVHRAAPIAGTAKNTPHDFIFTQTLNETVEADPGFNGGEYSSHEEVADGLRRQSHLWAAMGFSTEFWKQEAWRRLGLESKESVLADFLDPLFMSMDPNTLLNNAWKWQHGDVSRHTGGDLAAALGRVKAKTFVMPISEDMFFPVRDCAAEQALIPGSELRVIEDIAGHLGLFNVSENYIPQIDKNLKE”, the protein production entry is reported as “failed”.

“MPHELSWGDIYFSPTLLVLFLAVTATWITVMILNKTRLSRFIAFPSLTFIAIMVGYVVAIDSFYIQF”: the protein production entry is “failed”.

Regarding “VTGDRAGGRSWCLRRVGMSAGWLLLEDGCEVTVGRGFGVTYQLVSKICPLMISRNHCVLKQNPEGQWTIMDNKSLNGVWLNRARLEPLRVYSIHQGDYIQLGVPLENKENAEYEYEVTEEDWETIYPCLSPK”, the protein production entry was “not failed”.

Consider “DIMGFVFNTRRTLFKDKRVRQALSILFDFEWVNHHLFNNIYTRTEGYWDGSILSSIGKPASEEEKALLAPYPDAVLPEVMDGSWRISKTDGSGMDRLNAQKAWKLLQEAGFTKKNNRLIAPNGLPFQFEIMTQSLEEEKVALAFQSNLSRLGIHAEIRTVDDSQYQNRLGMFNYDMIIGKLKNSLSPGNEQINRWSSASRNLKGSFNFSGASDPAIDAMITAILDAHSQVDFIAAVRALDRILISGSYYIPLYHLS”, for which the protein production result is reported as “not failed”.

For “MQDNSVNETKNIVEVGIDSSIEESYLAYSMSVIIGRALPDARDGLKPVHRRILYAMHELGLTSKVAYKKSARIVGDVIGKYHPHGDNAVYDALVRMAQDFSMRLELVDGQGNFGSIDGDNAAAMRYTEARMTKASEEILRDIDKDTIDFVPNYDDTLKEPDILPSRLPNLLVNGANGIAVGMATSIPPHRMDEIIDALVHVLENPNAGLDEILEFVKGPDFPTGGIIYGKAGIIEAYKTGRGRVKVRAKVHVEKTKNKEIIVLDEMPFQTNKAKLVEQISDLAREKQIEGISEVRDESDREGIRVVIELKRDAMSEIVLNHLYKLTTMETTFSIILLAIYNKEPKIFTLLELLHLFLNHRKTIIIRRTIFELEKAKARAHILEGYLIALDNIDEIVRLIKTSQSPEAAKNALMERFTLSEIQSKAILEMRLQRLTGLERDKIKEEYQNLLELIDDLNGILKSEDRLNGVVKTELLEVKEQFSSPRRTEIQESYENIDIEDLIANEPMVVSMSYKGYVKRVDLKAYEKQNRGGKGKLSGSTYEDDFIENFFVANTHDILLFITNKGQLYHLKVYKIPEASRIAMGKAIVNLISLAPDEKIMATLSTKDFSDERSLAFFTKNGVVKRTNLSEFESNRSCGIRAIVLDEGDELVSAKVVDKNAKHLLIASHLGIFIKFPLEEVREIGRTTRGVIGIKLNENDFVVGAVVISDDGNKLLSVSENGLGKQTLAEAYRGQSRGGKGVIGMKLTQKTGNLVGVISVDDENLDLMILTASAKMIRVSIKDIRETGRNASGVKLINTADKVMYVNSCPKEEEPENLETSSAQNLFE”, the protein production result is “failed”.

As to “MSNYNVSLVGPAPWGFRLQGGKDFNMPLTISSLKDGGKASQAHVRIGDVVLSIDGISAQGMTHLEAQNKIKACTGSLNMTLQRASAAAKSEPVAVQKGEPKEVVKPVPITSPAVSKVTSTTNMAYNKVPRPFGSVSSPKVTSIPSPSSAFTPAHAATSSHASPPPVAAVTPPPLSASGLHASANPSAAQCSSPPNTGKPAVHVPRQPTVTSVCSESAQELAEGQRRGSQGDIKQQNGPPRKHIVERNTEFYHIPTHSDASKKRLIEDTEDWRPRTGTTQSRSFRILAQITGTEHLKESENDNAKKANSTPEPSQQSASPLSAAESLESPGSNRPVVAGLRSAAAFKPVGSTSVKSPSWQRPNQAAPSTGRISNSASSSGTGAPMKPAVGPPQPSDQDTLVQRAEHIPAGKRTPMCAHCNQAIRGPFLVALGKSWHPEEFNCAHCKNTMAYIGFVEEKGALYCELCYEKFFAPECGRCQRKILGEVINALKQTWHVSCFVCVACGKPIRNNVFHLEDGEPYCETDYYALFGTICRGCEFPIEAGDMFLEALGSTWHDTCFVCSVCCESLEGQTFFSKKDKPLCKKHAHSVNF”, the protein production result is reported as “failed”.

Regarding “MQTSIDPVFAGWDGSVAQARQLQQQLAQRVALRDEVSAAPALLAGFDVGFEDDGQTTRAAAVLLDAQTLLPLETHVARVPTSMPYVPGLLSFRELPALLRALALLARTPDLVFIDGQGIAHPRRFGIAAHFGVVTGLPSIGVAKQRLAGTFIEPGGERGDHSPILLAGAQIGWALRSKPRCNPLIVSPGHRVSMQGALDWTLRTLRAYRLPEPTRLADRLASRRGEIELQTQPTLLLEHHHHHH”, the protein production entry was “failed”.

With “MKLIWSPETASKAYIDTVKSCENLGTPGAAELVAAMAAGWNANLIVETWSEGETIAISVGLNIASRHTNGRHICIVPNARSQTAYLQAMAEQSCSNLPETIIMNEEGEELEHTMQTLQGIDFLVVDWDQKDFAANVLRNAVFGSRGAVVVCRSGYRRSTSCFSWTKAFSDRNVVRTVTLPVSGGLEIAHVAAARSSGKSDNNSNKRKWIKHFDQRSGEEHVIRK”, the protein production entry is “failed”.

As to “SKGMALRSVGGMVIESPRNETEHWLLETVGRQAQQAGIGMPTVAIYDSADINAFATGAKRDDSLVAVSTGLLHNMTRDEAEAVLAHEVSHIANGDMVTMTLMQG”, the protein production result is “not failed”.

On to “MKVASGSTATAAAGPSCALKAGKTASGAGEVVRCLSEQSVAISRCAGGAGARLPALLDEQQVNVLLYDMNGCYSRLKELVPTLPQNRKVSKVEILQHVIDYIRDLQLELNSESEVGTPGGRGLPVRAPLSTLNGEISALTAEAACVPADDRILCR”, for which the protein production entry is on record as “failed”.

Source of the values: a protein production outcome set (Wang et al. 2014).
